Target: His6-human talin (human) (UniProt Q9Y490)
Assay: pull-down

B1: His6-vinculin head (Vh), vinculin D1 domain (amino acid residues 1–258) (domain or fragment)
chain: MPVFHTRTIESILEPVAQQISHLVIMHEEGEVDGKAIPDLTAPVSAVQAAVSNLVRVGKETVQTTEDQILKRDMPPAFIKVENACTKLVRAAQMLQADPYSVPARDYLIDGSRGILSGTSDLLLTFDEAEVRKIIRVCKGILEYLTVAEVVETMEDLVTYTKNLGPGMTKMAKMIDERQQELTHQEHRVMLVNSMNTVKELLPVLISAMKIFVTTKNTKSQGIEEALKNRNFTVEKMSAEINEIIRVLQLTSWDEDAW
fold lower IC50 than that of the RIAM peptide: 100 fold

Source: paper PMC3639047
